Results: patent publication US20160002326A1 (AbbVie / Abbott, published 2016)

T1: mouse IL-17 (mouse, UniProt Q62386 26-158, limits assumed)
T1 construct: also called mouse IL-17A; rodent IL-17 (mouse)
T1 sequence (looked up): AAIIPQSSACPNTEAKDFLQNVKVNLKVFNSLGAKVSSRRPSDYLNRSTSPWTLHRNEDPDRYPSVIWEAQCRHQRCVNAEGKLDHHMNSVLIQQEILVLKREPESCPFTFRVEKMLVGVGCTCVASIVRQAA

T2: mouse TNF (mouse, UniProt P06804 80-235)
T2 construct: also called murine TNF; rodent TNF (mouse)
T2 sequence (looked up): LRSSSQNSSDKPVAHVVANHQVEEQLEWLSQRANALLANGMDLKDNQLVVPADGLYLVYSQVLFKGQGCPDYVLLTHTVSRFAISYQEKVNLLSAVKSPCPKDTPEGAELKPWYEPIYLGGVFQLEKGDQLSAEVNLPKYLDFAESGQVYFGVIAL

B1: 8C11/10F7M11 anti-TNF/IL-17 DVD-Ig protein (bispecific antibody, human IgG1, kappa, L234A L235A)
heavy: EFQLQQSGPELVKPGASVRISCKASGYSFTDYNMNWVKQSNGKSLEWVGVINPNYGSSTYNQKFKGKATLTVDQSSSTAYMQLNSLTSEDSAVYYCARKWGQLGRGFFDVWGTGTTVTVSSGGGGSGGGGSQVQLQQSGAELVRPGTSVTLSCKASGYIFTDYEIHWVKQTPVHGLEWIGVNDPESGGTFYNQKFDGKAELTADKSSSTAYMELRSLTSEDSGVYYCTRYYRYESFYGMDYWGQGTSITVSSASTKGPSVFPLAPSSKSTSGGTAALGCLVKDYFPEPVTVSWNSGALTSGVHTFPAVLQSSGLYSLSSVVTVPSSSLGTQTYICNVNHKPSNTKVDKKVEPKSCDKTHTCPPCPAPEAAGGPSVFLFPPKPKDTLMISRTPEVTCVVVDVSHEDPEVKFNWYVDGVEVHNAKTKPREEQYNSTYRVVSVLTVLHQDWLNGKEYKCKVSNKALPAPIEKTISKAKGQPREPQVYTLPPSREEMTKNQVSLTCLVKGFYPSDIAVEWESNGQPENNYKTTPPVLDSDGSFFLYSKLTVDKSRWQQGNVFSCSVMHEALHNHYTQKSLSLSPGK
light: QIVLSQSPAILSASPGEKVTMTCRASSSVSYMHWFQQKPGSSPKPWIYATSNLASGVPARFSGSGSGTSYSLTISRVEAEDAATYYCQQWSSSPLTFGAGTKLELKRGGSGGGGSGQIVLTQSPAIMSASPGEKVTMTCSASSSISYIYWFQQKPGTSPKRWIYATFELASGVPARFSGSGSGTSYSLTISSMEAEDAATYYCHQRSSYPWTFGGGSKLEIKRTVAAPSVFIFPPSDEQLKSGTASVVCLLNNFYPREAKVQWKVDNALQSGNSQESVTEQDSKDSTYSLSSTLTLSKADYEKHKVYACEVTHQGLSSPVTKSFNRGEC
notes: also called 8C11/10F7 DVD-Ig protein; anti-mouse TNF/IL-17 DVD-Ig
B2: anti-murine TNF antibody 8C11 (antibody, mouse IgG2c, V domains shown)
VH: EFQLQQSGPELVKPGASVRISCKASGYSFTDYNMNWVKQSNGKSLEWVGVINPNYGSSTYNQKFKGKATLTVDQSSSTAYMQLNSLTSEDSAVYYCARKWGQLGRGFFDVWGTGTTVTVSS
VL: QIVLSQSPAILSASPGEKVTMTCRASSSVSYMHWFQQKPGSSPKPWIYATSNLASGVPARFSGSGSGTSYSLTISRVEAEDAATYYCQQWSSSPLTFGAGTKLELKR
notes: also called 8C11 anti-TNF Ab; Anti-TNF

What was measured:
[1] = biological target: T1, mouse IL-17; assay: assay not stated (Table 5, 'Source And Binding Information')
[2] = biological target: T2, mouse TNF; assay: as above

| Binder | IC50 [1] [nM] | IC50 [2] [nM] |
| --- | --- | --- |
| B1 | 0.13 | 2 |
| B2 | – | 2 |
